Where a chain is given by its changes, count along the chain named. In names and notes the source's numbering stands.

Sequences and labels used below:
B1: CocH-LAF6 (Fc fusion)
chain: EDDIIIATKNGKVRGMNLTVFGGTVTAFLGIPYAQPPLGRLRFKKPQSLTKWSDIWNATKYANSCCQNIDQSFPGFHGSEMWNPNTDLSEDCLYLNVWIPAPKPKNATVLIWIYGGGFQTGTSSLHVYDGKFLARVERVIVVSMNYRVGALGFLALPGNPEAPGNMGLFDQQLALQWVQKNIAAFGGNPKSVTLFGESSGAASVSLHLLSPGSHSLFTRAILQSGSANAPWAVTSLYEARNRTLNLAKLTGCSRENETEIIKCLRNKDPQEILLNEAFVVPYGTPLGVNFGPTVDGDFLTDMPDILLELGQFKKTQILVGVNKDEGTWFLVGGAPGFSKDNNSIITRKEFQEGLKIFFPGVSEFGKESILFHYTDWVDDQRPENYREALGDVVGDYNFICPALEFTKKFSEWGNNAFFYYFEHRSSKLPWPEWMGVMHGYEIEFVFGLPLERRDNYTKAEEILSRSIVKRWANFAKYGNPNETQNNSTSWPVFKSTEQKYLTLNTESTRIMTKLRAQQCRFWTSFFPKVVEPKSCDKTHTCPPCPAPELLGGPSVFLFPPKPKDTLYITREPEVTCVVVDVSHEDPEVKFNWYVDGVEVHNAKTKPREEQYNSTYRVVSVLTVLHQDWLNGKEYKCKVSNKALPAPIEKTISKAKGQPREPQVYTLPPSREEMTKNQVSLTCLVKGFYPSDIAVEWESNGQPENNYKTTPPVLDSDGSFFLYSKLTVDKSRWQQGNVFSCSVMHEALHNHYTQKSLSLSPGK
notes: Direct fusion without a linker; also called CocH3-LAF6; CocH3(529)-Fc(M6)
B2: CocH-LAF8 (Fc fusion)
chain: B1 chain with P285Q
notes: Direct fusion without a linker; also called CocH2-LAF8; A199S/F227A/P285Q/S287G/A328W/Y332G/A530V/M567Y/S569T/T571E/D671E/L673M mutant of BChE(529)-Fc
B3: CocH-LAF7 (Fc fusion)
chain: B1 chain with P285A
notes: Direct fusion without a linker; also called CocHl-LAF7; CocH1-LAF7

In this assay the target is T1, human FcRn (human, UniProt P55899 24-297; P61769 21-119, limits assumed).
T1 construct: the construct, its source and whether b2m was present are not described; also called neonatal Fc receptor
T1 sequence (P55899 24-297 limits assumed, chain 1 of 2): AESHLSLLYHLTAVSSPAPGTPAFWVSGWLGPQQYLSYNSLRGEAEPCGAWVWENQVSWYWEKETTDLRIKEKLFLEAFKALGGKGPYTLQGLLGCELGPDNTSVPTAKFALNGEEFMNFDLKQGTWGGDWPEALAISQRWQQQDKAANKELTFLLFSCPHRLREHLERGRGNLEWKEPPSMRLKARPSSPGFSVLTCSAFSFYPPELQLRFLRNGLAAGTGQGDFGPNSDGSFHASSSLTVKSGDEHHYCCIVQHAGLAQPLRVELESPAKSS
T1 sequence (P61769 21-119 limits assumed, chain 2 of 2): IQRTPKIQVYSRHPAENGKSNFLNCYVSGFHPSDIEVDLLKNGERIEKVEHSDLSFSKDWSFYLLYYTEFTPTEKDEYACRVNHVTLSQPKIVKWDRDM
The assay can be described thus: in vitro binding to human FcRn at pH 6; method not described.
With B1, the dissociation constant (Kd) (as a rule, the equilibrium constant for the complex coming apart) stood at 43 nM.

In turn, B2 displayed a Kd of 43 nM.

B3 displayed an equilibrium dissociation constant (Kd) of 43 nM. In other words, the double-digit nanomolar range.

The values are drawn from patent publication US20210189359A1 (UNIVERSITY OF KENTUCKY RESEARCH FOUNDATION, published 2021).
